Test results: publication PMC5484120 (Marine Drugs, 2017)
Where no end group is shown, it is not given here. The star is where a group is joined. Cam = NC(=O)C*

Key:
[1] = biological target: O-conotoxin GeXXVIIA, native form (disulfide-linked homodimer) (Conus generalis); assay: mass spectrometry before and after reduction with DTT
[2] = system: α9α10 nAChR; conditions: cited from earlier work
[3] = system: rat models of neuropathic pain; conditions: in vivo; cited from earlier work
[4] = system: N-type Ca^2+ channel; conditions: cited from earlier work
[5] = biological target: human α9α10 nicotinic acetylcholine receptor (human) (UniProt Q9UGM1)
[6] = biological target: rodent α1β1εδ nicotinic acetylcholine receptor (rat α1, β1, δ; mouse ε) (rat | mouse) (UniProt P25108)

## O-conotoxin GeXXVIIA, native form (disulfide-linked homodimer) (peptide)
[1]
  stoichiometry N: 2

## Vc1.1
[2]
  IC50: 19 nM
[3]
  pain relief in rat models of neuropathic pain: long lasting relief in rat models of neuropathic pain

## ω-conotoxin MVIIA
[4]
  N-type Ca2+ channel inhibition (in words): selective N-type Ca^2+ channel inhibitor

## GeXXVIIA-L-Nter (N-terminal fragment of GeXXVIIA-L after Asp-N digestion) (peptide)
[5]
  IC50 of inhibition of ACh-evoked current of the receptor in Xenopus oocytes: 222 nM
[6]
  IC50 of inhibition of ACh-evoked current of the receptor in Xenopus oocytes: 2190 nM

## ALMSTGTNYRLLKTC(Cam)RGSGRYC(Cam)RSPYDC(Cam)RRRYC(Cam)RRISDAC(Cam)V [GeXXVIIA-L (disulfide-free linear peptide of GeXXVIIA, Cys residues alkylated with iodoacetamide)]
[6]
  IC50 of inhibition of ACh-evoked current of the receptor in Xenopus oocytes: 774 nM
